Test results taken from the RNAGym collection of RNA variant scans (doi:10.1021/acssynbio.7b00057).

B1: Pistol ribozyme (parent)
chain: GGGUCGUUGUUCCAUAAUCGCGUGGAUAUGGCACGCAAGUUUCUACCGGGCACCGUAAAUGUCCGACUGGAGCCGUUCGGGCGGCUAUAAACAGACCUCAGGCCCGAAGCGUGGCGGCACCUGCCGCCGGUGGUAAAAAAGAUCGGAAGAGCACACGUCU

Variants of: B1
Test: aptazyme ON/OFF ratio, guanine; higher = stronger switching; co-transcriptional cleavage with and without guanine

Row | Variant | aptazyme ON/OFF ratio
1 | U7G U8G G9U U11A C13A | 1.33
2 | U7G U8C U11G C12G | 1.22
3 | U7G U8C U11G C12U | 1.28
4 | U7G U8G U10A U11A C12A C13A | 1.31
5 | U8C U10A C12G C13G | 1.14
6 | U8C U10A C12G C13U | 1.26
7 | U7G G9U U10G U11C C13G | 1.11
8 | U7A U8A G9A U10G U11C C13G | 1.08
9 | U7C U8A G9A U10C U11C C12G C13U | 1.07
10 | U7G U8C G9A U10G U11C C12G | 1.2
11 | U7C U8A G9C U10C U11G | 0.891
12 | U8G G9A U10A U11C C13A | 1.08
13 | U7G U8G C12G C13A | 1.4
14 | U8C G9U U11A C12G C13A | 1.13
15 | U7G U8C U10A U11C C12A C13G | 1.23
16 | U8G G9A U10C C12U C13A | 1.14
17 | U7A U8C G9A U10G C12U C13U | 1.39
18 | U7A U8C G9A U10G C12U C13G | 1.18
19 | U7C G9A U10A U11C C12U | 1.07
20 | U7G U10G C13G | 1.13
21 | U7A U8A G9C U10G U11G C12A | 1.76
22 | U8G U10G U11C C12G | 1.11
23 | U7A U8G G9C U10G U11G C12G | 1.19
24 | U8G G9A U10A C12U C13U | 1.29

Row | Variant | aptazyme ON/OFF ratio
25 | U7C U8C G9A U10A C12A C13G | 1.12
26 | U7A U8A U10G U11C C12A C13A | 1.28
27 | U7A U8A U10G U11C | 1.03
28 | U7C U8A G9A U11C C13U | 1.05
29 | U7A U8G U10A U11C C12G C13U | 1.21
30 | U7G U8A G9C U10A U11A C12A C13A | 1.04
31 | U7A U8A G9C U11C C12G C13G | 1.07
32 | U7A U8A G9A U10A U11C C13U | 1.08
33 | U7C U8G U10A C12U C13A | 1.13
34 | U7G U8C G9A U10G U11C C12G C13G | 1.02
35 | U7G U10C U11A C12A | 1.18
36 | U7A U8A G9U U10C U11G C12A C13G | 1.11
37 | U7G U8C G9C U11C C12G C13A | 1.2
38 | U8G | 3.01
39 | U8G G9A C12A C13A | 1.25
40 | U7G U8C C13G | 1.07
41 | U7A U10C C13G | 1.08
42 | U7A U8C U11C C12G C13A | 1.32
43 | U7A U8C U11C C12G C13U | 1.5
44 | U7A U8G G9A U11A C12A C13U | 1.16
45 | U7C U8G G9U U10C U11C C12G C13A | 1.13
46 | U7G U8G U10C U11C C12U C13G | 1.34
47 | U8C G9A U10G U11G C12G C13A | 1.1
48 | G9A U10G C12A C13A | 1.29

Row | Variant | aptazyme ON/OFF ratio
49 | U7C U8C G9A U10G U11A C12G C13A | 1.19
50 | U7A U8C G9A U11G C12G | 1.24
51 | U8C G9U U10C C13U | 1.27
52 | U8G G9A U10A U11G C12U | 1.3
53 | U7C U8A G9C U10A U11A C13U | 1.19
54 | U7C U8A U10A C12U C13G | 1.18
55 | U7A U8C G9U U11G C12G | 1.16
56 | U7G G9A U10G U11G C12U C13G | 1.12
57 | U7G U10G C12U C13U | 1.43
58 | U7A U8G G9C U10A U11A C12A C13A | 1.5
59 | U8C U10A U11C C12G | 1.17
60 | U8G G9A C13A | 1.24
61 | U7C U8G G9U U11C C12G C13U | 1.35
62 | G9C U10C C12U C13A | 1.07
63 | U7A U8C G9C U10G U11A C13G | 1.1
64 | U7C U10G C12G C13U | 1.18
65 | U7C U8G G9C U10G U11C | 1.04
66 | U8A G9C C12G C13U | 1.27
67 | U10G U11C C12U C13G | 1.27
68 | U7A G9A U10A U11G C12G | 1.13
69 | U7A G9U U10G C12A | 1.15
70 | U7A U8C U10C U11A C12A | 1.29
71 | U7G G9C U10G U11A C12A | 1.18
72 | U7G G9U U10C U11G C12U C13G | 1.23

Row | Variant | aptazyme ON/OFF ratio
73 | U8A G9U U11A C12A C13U | 1.38
74 | U7G U8A G9C U10C U11A C12G C13G | 1.05
75 | U7C U8C G9U U10C U11A C13A | 1.2
76 | U7C U8C G9U U10C U11C C12G C13U | 1.05
77 | U7A U8G G9C U10C U11C | 0.976
78 | U7G U8A G9A C12G | 1.18
79 | U7G U8G G9C U10G U11G | 1.26
80 | U7C U8G G9A U10C U11G C12A C13U | 1.14
81 | U7G G9U U10G C12A C13G | 1.12
82 | U8A G9U U10C U11A C13A | 1.06
83 | U7C U8A G9U U10A U11C C12A | 1.15
84 | U7G G9U U11A C12A C13G | 1.23
85 | U7G U8A G9A U10C U11C C13A | 1.04
86 | U7C U10A U11G C12G C13U | 1.12
87 | U8G G9U U10G U11A C12U C13A | 1.05
88 | U7C G9U U10G U11A C12U C13U | 1.1
89 | U8C U10A C13G | 1.05
90 | U10A U11C C12G C13U | 1.23
91 | U7A U8G G9C U10G C12U C13A | 1.48
92 | U7C G9A U10A C12A C13A | 1.17
93 | U7G G9U U11C C12G C13A | 1.22
94 | U8G G9A U10G U11G C12G C13A | 1.19
95 | U8C G9U U10G U11A C13U | 1.14
96 | U8A U10G U11A C12G | 1.1

Row | Variant | aptazyme ON/OFF ratio
97 | U8C G9A U10C U11G C13U | 1.35
98 | U7C G9C U10C U11C C12G C13U | 1.05
99 | U8G G9C U10C U11G C12G C13A | 1.08
100 | U7A U8A G9C U10G U11A C12U C13U | 1.1
101 | U7A G9A U11G C12G | 1.29
102 | U7C U8G U10G U11A | 1.17
103 | U7G U8A G9U U11A C12A C13U | 1.15
104 | U8A G9A U11C C12U C13G | 1.2
105 | U8A U10A U11A C12U C13U | 1.17
106 | U7A U8C G9U U10G U11A C13U | 1.06
107 | U10G U11G C12A C13G | 1.11
108 | U7C G9U U10A U11G C13U | 1.21
109 | U7G U8A G9U U10C U11G C12G C13U | 1.02
110 | U7C U8C G9A U10C C13G | 1.35
111 | U7C U8G U10C U11G C12G C13G | 1.09
112 | G9U U10A U11A C12A | 1.54
113 | U7C U8A G9A U10C C12G C13A | 1.13
114 | U7C U8C G9A U10G C12G C13A | 1.2
115 | U7A U8A G9C U10C U11G C12A | 1.07
116 | U7G G9C U10C U11G C12G C13U | 1.08
117 | U8A G9C U10C C12U C13U | 1.03
118 | G9A C12A C13U | 1.38
119 | U7A U8G G9U U11C | 1.45
120 | U8G G9U U10A U11G C12U C13A | 1.05

Row | Variant | aptazyme ON/OFF ratio
121 | U8C C12U C13A | 1.26
122 | U7G U8G G9A U10G U11C C12G C13G | 1.13
123 | U8A G9A U10G C12U C13U | 1.41
124 | U7A U8C G9C C12U C13A | 1.08
125 | U7G U8A U10A U11G C13A | 1.23
126 | U7A G9U U10C U11C C13U | 1.02
127 | U7A U8G G9A U10C U11C C13G | 1.03
128 | U7A U8C G9C U10A U11A C13U | 1.13
129 | U7A U8A U10G U11A C12A C13U | 1.7
130 | U7G U8G G9A U10C U11A C12A C13A | 1.2
131 | U7A G9U U10C U11A C13U | 1.1
132 | U7G U8G G9C U10C U11C C12G C13G | 1.06
133 | U7C U8C G9U U11C C12A | 1.17
134 | U7C U8C G9U U10C U11C C12A C13A | 1.12
135 | U8C U10C U11A C12G C13A | 1.2
136 | U7C U8C U11C C12U C13U | 1.43
137 | U7G U8A U11G C12A | 1.45
138 | U7A U8A G9C C13U | 1.13
139 | U7C G9A U11G C12A C13G | 1.25
140 | U7G U8G G9A U11G C12G C13G | 1.12
141 | U7G U8G U10A C12A C13U | 1.33
142 | U7G U8C G9C U10G U11C C13G | 1.36
143 | U7C U8C G9C U10C U11C C12G C13A | 1.28
144 | U7C U8G G9U U10A C12A C13G | 1.15

Row | Variant | aptazyme ON/OFF ratio
145 | U7C U8A G9U U11G C12U C13A | 1.22
146 | U8G G9U U10C U11A C12U | 1.11
147 | U7A U8C G9C U10C U11A C12U | 1.03
148 | U7G U8G G9C U10A U11G C12G C13G | 1.07
149 | U8C U10A U11G C13A | 1.3
150 | U7G U8G G9C U10C U11A C12U C13U | 1.23
151 | U7A U8G U10A U11A C12G | 1.13
152 | U8G G9C U10A C12G C13A | 1.16
153 | U7C G9U U11C C12G | 1.08
154 | U7A U8A G9A U10C C13A | 1.13
155 | U7C U8A G9U C13G | 1.03
156 | U7A G9C U10G U11A C12U C13U | 1.05
157 | U8A G9C U11C C12A C13G | 1.05
158 | U7G G9A U11G C12G C13U | 1.16
159 | U10G U11G C13U | 1.16
160 | U7A U8A G9U U11G C12U | 1.31
161 | U7C U8G G9U C12U C13A | 1.31
162 | U7A U10G U11C C13A | 1.07
163 | U7G U8C G9A U10G U11G C12A C13A | 1.13
164 | U7A U8A G9U U10A U11A C12A C13U | 1.18
165 | U7C U8C G9A U10A C12G C13A | 1.11
166 | U7G U8A G9A U10G C13G | 1.2
167 | U7A G9A U10G U11C C12A C13A | 1.16
